Measured values reported in US20150368659.

Key:
[1] = tested on: GBSS_T1 TALE-nuclease right monomer (synthetic construct (Xanthomonas TALE)?); assay: cell_activity; conditions: pair with left monomer; S. tuberosum protoplasts; 23% with TREX2 co-delivered; full target SEQ 5
[2] = tested on: GBSS_T1 TALE-nuclease left monomer (synthetic construct (Xanthomonas TALE)?); assay: cell_activity; conditions: pair with right monomer; S. tuberosum protoplasts; 23% with TREX2 co-delivered; full target SEQ 5

AGCTTGATGGGCTCCAA (double strand) [GBSS_T1 right half-site]
activity (% NHEJ mutagenesis) [1]: 11

TCTGACTCACAATGGTT (double strand) [GBSS_T1 left half-site]
activity (% NHEJ mutagenesis) [2]: 11
